Source: the supplement of paper PMC12764529
± gives the half width of the 95% confidence interval.

Experiments:
[1] = folding stability dG unfold from trypsin proteolysis; higher = more stable
Outline: (§1)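 Mini-proteins designed to be under 80 residues and free of cysteine were carried in a PA-tagged cDNA display construct and digested with trypsin and with chymotrypsin. Each protease was applied at 11 threefold-diluted concentrations, alongside a no-protease condition, before sequencing. K50 came from Bayesian fitting of the sequencing counts, and unfolding free energy was obtained by comparing it with a sequence-predicted unfolded-state K50 and a shared folded-state K50, for each protease separately or for both together. Designs were retained only if their AlphaFold2 dimer inter-PAE exceeded 15.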

[2] = folding stability dG unfold (combined trypsin and chymotrypsin); higher = more stable
Outline: as §1

[3] = folding stability dG unfold from chymotrypsin proteolysis; higher = more stable
Outline: as §1

Sequence: SMREIPPEDLKKAANAYLNGDKEKVEQLFKDAGFKKVVLEEVEGDGEVLFVALVEHPDGPTVLTVSSSDFSA [r9_783_TrMRF]
- folding stability dG unfold [1]: 0.7 ± 0.064 kcal/mol
- folding stability dG unfold [2]: 1.04 ± 0.25 kcal/mol
- folding stability dG unfold [3]: 1.33 ± 0.1 kcal/mol

Sequence: SAGGSAGGGPPSPVQTSTTSFSVSGDSSVTNVTVVTLPDGSLLVETTVFPSSGGSVSSLSSIPASAGGSAGG [r6_670_JUSTAS]
- folding stability dG unfold [1]: 1.27 ± 0.031 kcal/mol
- folding stability dG unfold [2]: 0.855 ± 0.058 kcal/mol
- folding stability dG unfold [3]: 0.218 ± 0.21 kcal/mol

Sequence: SAGGSPEVKIEIEVTERVTVFDENGKPVEEVLVVKAKITFPDGTTATITAFFYEGKWFITSIELEPSAGGSA [r2_158_TrROS_Hall]
- folding stability dG unfold [1]: 3.84 ± 0.25 kcal/mol
- folding stability dG unfold [2]: 4.62 ± 0.27 kcal/mol
- folding stability dG unfold [3]: 4.83 ± 0.24 kcal/mol

Sequence: SAGGSAGGSPDLPELNIEPVSTLPDGSKIYRADVSPEAIARLKAANPAVTVEEHPDFLLLFLRESAGGSAGG [r6_395_JUSTAS]
- folding stability dG unfold [1]: 0.475 ± 0.059 kcal/mol
- folding stability dG unfold [2]: 0.565 ± 0.04 kcal/mol
- folding stability dG unfold [3]: 0.666 ± 0.058 kcal/mol

Sequence: SAGSPEELAEKIAEELAAEYEKKNPDKKPVKIEVKEVVVDPEGGSVTIKIKFYDPDGKPLAEPVITVESAGG [r19_53_JUSTAS]
- folding stability dG unfold [1]: 1.74 ± 0.17 kcal/mol
- folding stability dG unfold [2]: 1.76 ± 0.21 kcal/mol
- folding stability dG unfold [3]: 1.85 ± 0.13 kcal/mol

Sequence: SASFTLTPVTVTLSPDPETGAILAPVLATAGDHPVFGLAYVDPLDPSRAYYRIYYPPSDLVEYAVVPLPSAG [r14_178_TrMRF]
- folding stability dG unfold [1]: 0.469 ± 0.066 kcal/mol
- folding stability dG unfold [2]: 0.722 ± 0.097 kcal/mol
- folding stability dG unfold [3]: 0.847 ± 0.15 kcal/mol

Sequence: SAGGSAGGGMEPVTETITVPITTPEELEAVKKEAEARREKEGLVSYEISESPDGTVTITITKPVSAGGSAGG [r6_730_JUSTAS]
- folding stability dG unfold [1]: 0.155 ± 0.1 kcal/mol
- folding stability dG unfold [2]: 0.427 ± 0.34 kcal/mol
- folding stability dG unfold [3]: 0.334 ± 0.071 kcal/mol

Sequence: SAMKKGEKVKVTLEIEVNGKKYKIELVYDKENNTYTIKIKNEKTGETKTIEVKAKTKEEALEAAKKLLESAG [r14_65_TrROS_Hall]
- folding stability dG unfold [1]: 1.96 ± 0.076 kcal/mol
- folding stability dG unfold [2]: 2.41 ± 0.16 kcal/mol
- folding stability dG unfold [3]: 2.55 ± 0.035 kcal/mol

Sequence: SAGGMTLVLRFPSKEEALEALRELAEALGLEVEITKIEIEEREVEDPETGEKRREVLITIEVKVKPPSAGGS [r16_587_TrROS_Hall]
- folding stability dG unfold [1]: 3.83 ± 0.37 kcal/mol
- folding stability dG unfold [2]: 4.48 ± 0.29 kcal/mol
- folding stability dG unfold [3]: 4.62 ± 0.14 kcal/mol

Sequence: SAGGPPVAEIRVTEEDPETGVVRMEATLPEAPRPVRATGTRLDPGGGTVLVTVTDPDGGPDTTTTLAASAGG [r13_337_JUSTAS]
- folding stability dG unfold [1]: -0.308 ± 0.1 kcal/mol
- folding stability dG unfold [2]: 0.0684 ± 0.12 kcal/mol
- folding stability dG unfold [3]: 0.221 ± 0.12 kcal/mol

Sequence: SAGKETIKIKLFDKNGKLIAEIEIEKLPDGTYKIKIKNKKTGKELEIEVKIEDGKIYIKLPNGAILEIESAG [r5_809_TrROS_Hall]
- folding stability dG unfold [1]: 3.51 ± 0.19 kcal/mol
- folding stability dG unfold [2]: 5.04 ± 0.2 kcal/mol
- folding stability dG unfold [3]: 5.13 ± 0.2 kcal/mol

Sequence: SIIRSPNGYWIVITVKVPEGAKPFPPGFEVQRDPEKGTLTIIMPMPPDDIRRLAEHPGVEIEKIEFIPWDSA [r9_827_TrROS]
- folding stability dG unfold [1]: 1.14 ± 0.032 kcal/mol
- folding stability dG unfold [2]: 1.74 ± 0.069 kcal/mol
- folding stability dG unfold [3]: 2.05 ± 0.021 kcal/mol

Sequence: SAGGSAKPKIKITITRNEDGSLLVRITLPDGREVELSVDDIKALEDAGINLDDVEITEVEVSPEDLSAGGSA [r15_955_TrROS_Hall]
- folding stability dG unfold [1]: 3.92 ± 0.12 kcal/mol
- folding stability dG unfold [2]: 3.36 ± 0.13 kcal/mol
- folding stability dG unfold [3]: 2.71 ± 0.067 kcal/mol

Sequence: SAGGSAGGSASMKEVTILVKKKLPGGEEEESVTTVTLNPNEIDKVKEEFKKKGWEVVKVVSSAGGSAGGSAG [r3_453_JUSTAS]
- folding stability dG unfold [1]: 1.23 ± 0.017 kcal/mol
- folding stability dG unfold [2]: 1.56 ± 0.045 kcal/mol
- folding stability dG unfold [3]: 1.74 ± 0.034 kcal/mol

Sequence: SAGGSAGGSAGMVIELPDGRKAIIVKYDKETKRFYVEIVDKKTGEKKIYEFKSLEEALKASAGGSAGGSAGG [r17_300_TrROS_Hall]
- folding stability dG unfold [1]: 2.18 ± 0.16 kcal/mol
- folding stability dG unfold [2]: 2.79 ± 0.15 kcal/mol
- folding stability dG unfold [3]: 2.86 ± 0.092 kcal/mol

Sequence: SAGGSAGGSAKPTFDNVENLSLEELAKKIAKEAAEKYPDAKNVEVEFRLPNGKSYRIVVDVDSAGGSAGGSA [r18_449_TrMRF]
- folding stability dG unfold [1]: 1.21 ± 0.036 kcal/mol
- folding stability dG unfold [2]: 1.26 ± 0.096 kcal/mol
- folding stability dG unfold [3]: 1.26 ± 0.12 kcal/mol

Sequence: SAGGSAGGDRLEVVAPVDDPVEQAREFAERLREEFRRRYPDREIDRVEVFYDPGARTLHVRLYPSAGGSAGG [r6_662_TrMRF]
- folding stability dG unfold [1]: 2.12 ± 0.026 kcal/mol
- folding stability dG unfold [2]: 2.51 ± 0.066 kcal/mol
- folding stability dG unfold [3]: 2.704 ± 0.024 kcal/mol
